The text below walks through data of US20130064834A1 (published 2013).

Assay [1] has as its target T1, rat (Rattus norvegicus) PCSK9, myc-myc-his tagged (rat (Rattus norvegicus), UniProt P59996 31-691).
T1 construct: also called rPCSK9-mmh; rPCSK9
In words: SPR, mAb amine-coupled, 25C, pH 7.4. Background: Surface plasmon resonance follows binding to a sensor surface in real time, without labels.
From the text: Briefly, mAbs were immobilized onto BIACORE™ CM5 sensor chips via amine coupling.

The target in assay [2] is T2, Chimeric protein #3 (mPro-mCat-hC-term-mmh) (mouse; human).
T2 chain: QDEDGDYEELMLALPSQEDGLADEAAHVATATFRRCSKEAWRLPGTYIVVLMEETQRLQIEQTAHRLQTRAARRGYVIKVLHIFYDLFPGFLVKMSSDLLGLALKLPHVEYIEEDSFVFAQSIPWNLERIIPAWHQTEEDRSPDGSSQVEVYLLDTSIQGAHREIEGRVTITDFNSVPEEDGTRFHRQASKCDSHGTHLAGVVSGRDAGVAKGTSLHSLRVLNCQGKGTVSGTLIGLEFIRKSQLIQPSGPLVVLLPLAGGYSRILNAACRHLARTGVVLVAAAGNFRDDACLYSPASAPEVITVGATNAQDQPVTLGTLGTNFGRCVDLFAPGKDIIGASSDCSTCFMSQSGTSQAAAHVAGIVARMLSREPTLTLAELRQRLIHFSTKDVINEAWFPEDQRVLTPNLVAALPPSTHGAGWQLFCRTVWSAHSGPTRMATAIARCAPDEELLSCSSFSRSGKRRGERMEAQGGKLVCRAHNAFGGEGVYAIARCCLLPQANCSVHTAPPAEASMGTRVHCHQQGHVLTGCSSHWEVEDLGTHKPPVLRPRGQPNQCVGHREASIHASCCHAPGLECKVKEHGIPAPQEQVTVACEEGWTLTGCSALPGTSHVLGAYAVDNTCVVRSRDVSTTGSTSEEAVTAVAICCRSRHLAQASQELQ
In words: ELISA, mAb coated, 1.7 nM antigen. A general note: ELISA stands for enzyme-linked immunosorbent assay.

The target in assay [3] is T3, human PCSK1, myc-myc-his tagged (human, UniProt P29120 111-753, limits assumed).
T3 construct: also called hPCSK1-mmh; hPCSK1
T3 sequence: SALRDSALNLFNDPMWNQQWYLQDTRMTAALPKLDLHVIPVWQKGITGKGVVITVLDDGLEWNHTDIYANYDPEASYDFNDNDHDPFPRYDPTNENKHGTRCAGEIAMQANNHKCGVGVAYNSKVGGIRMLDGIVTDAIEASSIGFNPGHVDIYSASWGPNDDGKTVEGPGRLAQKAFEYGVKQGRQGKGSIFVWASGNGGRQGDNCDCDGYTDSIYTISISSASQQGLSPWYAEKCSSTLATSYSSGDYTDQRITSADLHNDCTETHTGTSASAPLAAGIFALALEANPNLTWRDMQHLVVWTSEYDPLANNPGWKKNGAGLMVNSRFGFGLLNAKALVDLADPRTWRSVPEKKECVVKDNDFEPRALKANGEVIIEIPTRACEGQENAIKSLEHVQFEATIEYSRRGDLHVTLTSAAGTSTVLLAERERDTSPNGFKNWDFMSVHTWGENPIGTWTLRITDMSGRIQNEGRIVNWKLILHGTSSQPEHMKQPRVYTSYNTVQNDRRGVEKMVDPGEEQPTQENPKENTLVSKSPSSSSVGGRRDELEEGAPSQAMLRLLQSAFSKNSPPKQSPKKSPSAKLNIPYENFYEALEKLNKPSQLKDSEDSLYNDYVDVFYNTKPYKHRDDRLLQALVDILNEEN
In words: ELISA, mAb coated.

In assay [4] the target is T4, human PCSK7, myc-myc-his tagged (human, UniProt Q16549 142-667, limits assumed).
T4 construct: also called hPCSK7-mmh; hPCSK7
T4 sequence: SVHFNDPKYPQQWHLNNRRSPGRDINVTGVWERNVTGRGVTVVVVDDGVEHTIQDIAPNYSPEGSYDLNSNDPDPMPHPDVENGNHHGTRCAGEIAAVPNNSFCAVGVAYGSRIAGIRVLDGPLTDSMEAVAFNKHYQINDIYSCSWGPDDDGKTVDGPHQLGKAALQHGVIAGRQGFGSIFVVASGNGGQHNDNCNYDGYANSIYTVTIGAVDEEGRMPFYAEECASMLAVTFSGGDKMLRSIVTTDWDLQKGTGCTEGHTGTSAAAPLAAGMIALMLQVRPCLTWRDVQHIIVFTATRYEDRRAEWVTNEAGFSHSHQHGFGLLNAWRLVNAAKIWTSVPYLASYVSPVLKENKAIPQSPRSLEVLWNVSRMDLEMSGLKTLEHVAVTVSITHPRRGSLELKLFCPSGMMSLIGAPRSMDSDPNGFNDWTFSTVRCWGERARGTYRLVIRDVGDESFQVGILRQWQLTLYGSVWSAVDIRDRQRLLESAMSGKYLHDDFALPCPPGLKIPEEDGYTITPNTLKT
The assay can be described thus: ELISA, mAb coated.

The target of assay [5] is T5, tagged rhesus monkey (Macaca mulata) PCSK9 (rhesus monkey (Macaca mulata), UniProt A8T666 31-692).
T5 construct: also called mmPCSK9-mmh; mmPCSK9
In words: SPR, mAb captured on anti-hFc, 25C.

Assay [6] addresses T6, hPCSK9(D374Y)-mmh (human, UniProt Q8NBP7 31-692).
T6 construct: also called hPCSK(D374Y)-mmh
In words: SPR, mAb captured on anti-hFc, 25C.

Assay [7] addresses T7, cynomolgus monkey (Macaca fascicularis) PCSK9, myc-myc-his tagged (cynomolgus monkey (Macaca fascicularis), UniProt A8T662 31-692 (Macaca nemestrina entry), limits assumed).
T7 construct: also called mfPCSK9-mmh; mfPCSK9
In words: SPR, mAb captured on anti-hFc, 25C.

Assay [8] concerns the target T8, Human PCSK9-myc-myc-his (human, UniProt Q8NBP7 31-692).
T8 construct: also called hPCSK9-mmh; hPCSK9
The assay can be described thus: SPR, mAb captured on anti-hFc, 25C.

T5 sequence (A8T666 31-692 limits assumed): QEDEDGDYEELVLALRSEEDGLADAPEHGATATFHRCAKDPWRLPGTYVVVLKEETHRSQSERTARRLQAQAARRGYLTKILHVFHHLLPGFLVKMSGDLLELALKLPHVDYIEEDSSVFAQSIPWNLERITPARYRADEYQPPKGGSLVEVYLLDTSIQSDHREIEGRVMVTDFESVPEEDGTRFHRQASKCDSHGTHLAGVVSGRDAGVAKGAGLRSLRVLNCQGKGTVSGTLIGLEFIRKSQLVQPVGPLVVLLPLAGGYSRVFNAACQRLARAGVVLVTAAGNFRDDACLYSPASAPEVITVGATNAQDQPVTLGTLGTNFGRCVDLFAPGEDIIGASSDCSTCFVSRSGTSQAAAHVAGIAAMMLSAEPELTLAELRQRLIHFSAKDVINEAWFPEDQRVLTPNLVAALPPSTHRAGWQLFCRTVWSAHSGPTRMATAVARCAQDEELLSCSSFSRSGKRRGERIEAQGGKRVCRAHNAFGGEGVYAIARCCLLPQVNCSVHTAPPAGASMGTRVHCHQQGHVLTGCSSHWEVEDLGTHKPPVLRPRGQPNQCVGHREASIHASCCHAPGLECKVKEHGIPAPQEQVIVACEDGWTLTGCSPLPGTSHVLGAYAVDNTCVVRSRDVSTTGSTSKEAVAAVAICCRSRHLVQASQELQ
T1 sequence (P59996 31-691 limits assumed): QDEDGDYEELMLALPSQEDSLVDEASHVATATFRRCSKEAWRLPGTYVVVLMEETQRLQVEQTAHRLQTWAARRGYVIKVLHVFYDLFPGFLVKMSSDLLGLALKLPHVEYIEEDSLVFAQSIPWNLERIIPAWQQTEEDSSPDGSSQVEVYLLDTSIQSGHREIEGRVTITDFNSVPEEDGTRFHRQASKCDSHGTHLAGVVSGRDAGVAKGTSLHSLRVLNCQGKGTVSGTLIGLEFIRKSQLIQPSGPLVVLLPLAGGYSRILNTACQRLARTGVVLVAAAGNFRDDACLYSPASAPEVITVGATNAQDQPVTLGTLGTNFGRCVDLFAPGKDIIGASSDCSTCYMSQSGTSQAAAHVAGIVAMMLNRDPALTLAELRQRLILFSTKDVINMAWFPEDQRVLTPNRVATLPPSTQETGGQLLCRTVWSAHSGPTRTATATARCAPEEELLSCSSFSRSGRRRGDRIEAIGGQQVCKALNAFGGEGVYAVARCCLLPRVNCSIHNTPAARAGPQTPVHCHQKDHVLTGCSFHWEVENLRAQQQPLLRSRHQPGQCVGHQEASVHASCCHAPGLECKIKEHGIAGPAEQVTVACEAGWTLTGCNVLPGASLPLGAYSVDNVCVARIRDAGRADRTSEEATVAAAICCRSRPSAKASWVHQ
T7 sequence (A8T662 31-692 limits assumed): as the sequence (A8T666 31-692 limits assumed) above, with P607A, K639E counted along it

B1: H1H316P (antibody, V domains shown)
VH: EVQLVESGGGLVQPGGSLRLSCAASGFTFNNYAMNWVRQAPGKGLDWVSTISGSGGTTNYADSVKGRFIISRDSSKHTLYLQMNSLRAEDTAVYYCAKDSNWGNFDLWGRGTLVTVSS
VL: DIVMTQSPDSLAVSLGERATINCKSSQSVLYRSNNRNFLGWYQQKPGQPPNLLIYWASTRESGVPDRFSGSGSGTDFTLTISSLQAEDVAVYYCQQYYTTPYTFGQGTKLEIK
notes: Fully human mAb made in CHO cells; also called mAb316P
As usually defined, the Kd is the constant that tells how readily two partners part at equilibrium. On to B1, for which, in assay [1], binding was characterised by a dissociation constant (Kd) of 24.1 nM and the T1/2 is 2 min. Moreover, in assay [2], the OD was > 1.5 od. In addition, the binding result in assay [3] is “no binding (tested: 1.2 nM)”. For the same molecule, the binding result in assay [4] is “no binding (tested: 1.2 nM)”.

B2: H1M300N (antibody, V domains shown)
VH: EMQLVESGGGLVQPGGSLRLSCAASGFTFSSHWMKWVRQAPGKGLEWVANINQDGSEKYYVDSVKGRFTISRDNAKNSLFLQMNSLRAEDTAVYYCARDIVLMVYDMDYYYYGMDVWGQGTTVTVSS
VL: not shown
notes: Fully human version made in CHO cells
B2: the Kd was 0.61 nM in assay [5], 0.9 nM in assay [6], 1.5 nM in assay [7] and 0.74 nM in assay [8]. The T1/2 in assay [5] worked out at 1.32 h; in assay [6], 1.08 h; in assay [7] it was 0.75 h; in assay [8], 1.83 h.
